B1: M0031-F01 Fab (Fab, V domains shown)
VH: EVQLLESGGGLVQPGGSLRLSCAASGFTFSTYEMHWVRQAPGKGLEWVSSIYSSGGWTGYADSVKGRFTISRDNSKNTLYLQMNSLRAEDTAVYYCARSQQYYDFSSRYYGMDVWGQGTTVTVSS
VL: QSELTQPPSVSGTPGQRVTISCSGTSANIGRNAVHWYQQLPGTAPKLLIHSNNRRPSGVPDRFSGSKSGTSASLAISGLQSEDEADYYCAAWENSLNAFYVFGTGTKVTVL
B2: M0031-F01 IgG (antibody, V domains shown)
VH: B1 VH
VL: B1 VL
B3: M0038-F01 Fab (Fab, V domains shown)
VH: EVQLLESGGGLVQPGGSLRLSCAASGFTFSLYSMNWVRQAPGKGLEWVSSIYSSGGSTLYADSVKGRFTISRDNSKNTLYLQMNSLRAEDTAVYYCARGRAFDIWGQGTMVTVSS
VL: DIQMTQSPSSLSAFVGDKVTITCRASQSVGTYLNWYQQKAGKAPELLIYATSNLRSGVPSRFSGSGSGTDFTLTINTLQPEDFATYYCQQSYSIPRFTFGPGTKVDIK
B4: M0040-A06 IgG (antibody, V domains shown)
VH: EVQLLESGGGLVQPGGSLRLSCAASGFTFSYYGMYWVRQAPGKGLEWVSSISSSGGYTDYADSVKGRFTISRDNSKNTLYLQMNSLRAEDTAVYYCARRIKYYDIEGEGAFDIWGQGTMVTVSS
VL: DIVMTQTPPSLPVNPGEPASISCRSSQSLLHRNGYNYLDWYLQKPGQSPQLLIHLGSYRASGVPDRFSGSGSGTDFTLKISRVEAEDVGVYYCMQPLQTPFTFGPGTKVDIK
B5: M0033-H07 Fab (Fab, V domains shown)
VH: EVQLLESGGGLVQPGGSLRLSCAASGFTFSVYGMVWVRQAPGKGLEWVSVISSSGGSTWYADSVKGRFTISRDNSKNTLYLQMNSLRAEDTALYYCARPFSRRYGVFDYWGQGTLVTVSS
VL: DIQMTQSPSSLSASVGDRVTITCRASQGIRNFLAWYQQKPGKVPKLLVFGASALQSGVPSRFSGSGSGTDFTLTISGLQPEDVATYYCQKYNGVPLTFGGGTKVEIK
B6: M0038-E06 Fab (Fab, V domains shown)
VH: EVQLLESGGGLVQPGGSLRLSCAASGFTFSPYVMHWVRQAPGKGLEWVSSISPSGGWTYYADSVKGRFTISRDNSKNTLYLQMNSLRAEDMAVYYCARGTGAYGMDVWGQGTTVTVSS
VL: DIQMTQSPGTLSLSPGDRATLSCGASQLVVSNYIAWYQQKPGQAPRLLMYAGSIRATGIPDRFSGSGSGTDFTLTISRLEPEDFAIYYCQQRSNWPWTFGQGTKVEIK
B7: M0038-E06 IgG (antibody, V domains shown)
VH: B6 VH
VL: B6 VL
B8: M0038-F08 Fab (Fab, V domains shown)
VH: EVQLLESGGGLVQPGGSLRLSCAASGFTFSRYKMWWVRQAPGKGLEWVSGIRPSGGLTRYADSVKGRFTISRDNSKNTLYLQMNSLRAEDTAVYYCARRGDYVGGFDYWGQGTLVTVSS
VL: DIQMTQSPGTLSLSPGERATLSCRASQSVSSSYLAWYQQKPGQAPRLLIYGASSRATGIPDRFSGSGSGTDFTLTISRLEPEDFAVYYCQHYGGSQAFGGGTKVEIK
B9: M0038-F08 IgG (antibody, V domains shown)
VH: B8 VH
VL: B8 VL

The assay deals with human MMP-14 (human, UniProt P50281 112-541, limits assumed). The assay is described as follows: cell-based or functional assay.
Take B1: the “IC50 of MMP-14 inhibition (MMP-14 at 2 pM), Fab” value (from here on “IC50 of MMP-14 inhibition … Fab”) came to 25.3 nM.

Turning to B2, the “IC50 of MMP-14 inhibition (MMP-14 at 2 pM), IgG” value (from here on “IC50 of MMP-14 inhibition … IgG”) was determined as 15.2 nM.

For the molecule B3, the “IC50 of MMP-14 inhibition … Fab” value turned out to be 3.8 nM. B4: the “IC50 of MMP-14 inhibition … IgG” value was determined as 1.7 nM. As for B5, the “IC50 of MMP-14 inhibition … Fab” value was 11.5 nM. For the molecule B6, the “IC50 of MMP-14 inhibition … Fab” value was 16.6 nM. B7: the “IC50 of MMP-14 inhibition … IgG” value was found to be 7.2 nM. B8: the “IC50 of MMP-14 inhibition … Fab” value was 31.1 nM.

Take B9: the “IC50 of MMP-14 inhibition … IgG” value was 23 nM.

For the origin of these results see US7745587 (DYAX, dated 2010).
